Several values for one entry are separate records, joined by “and”; a condition that tells them apart may be missing. Identical values can stand only once.

The target in test [1] is Acinetobacter baumannii glutamyl-tRNA reductase (HemA), N-terminal His-tagged (Acinetobacter baumannii (strain ATCC 19606)). Put plainly: SEC; sample of AbHemA and AbHemL co-expressed (pET28hemL_(6xHis)-hemA_(6xHis)) and co-purified on NiNTA; Superdex 200 10/300 GL, room temperature, 0.5 mL/min, 50 mM Na phosphate pH 8.0, 100 mM NaCl; fractions checked by SDS-PAGE; also after 16 h at 4°C without or with 0.1 M sodium citrate, and of a sample grown and purified with citrate. On the technique in general: In gel filtration, larger molecules generally elute earlier.

The target of test [2] is Acinetobacter baumannii glutamate-1-semialdehyde-2,1-aminomutase (HemL), N-terminal His-tagged (Acinetobacter baumannii (strain ATCC 19606)). Put plainly: SEC; individually purified protein alone; Superdex 200 10/300 GL, room temperature, 50 mM Na phosphate pH 8.0, 100 mM NaCl; calibrated with ferritin, aldolase, conalbumin, ovalbumin.
Test [3] has as its target Acinetobacter baumannii glutamyl-tRNA reductase (HemA), N-terminal His-tagged (Acinetobacter baumannii (strain ATCC 19606)). The test is described as above.

The term stoichiometry N denotes the number of molecules, sites or subunits per partner or assembly. On to “Acinetobacter baumannii glutamate-1-semialdehyde-2,1-aminomutase (HemL), N-terminal His-tagged (enzyme)”, for which, in test [1], the fold increase of the 200 kDa complex fraction with 0.1 M sodium citrate against without citrate is 4 fold. In addition, the stoichiometry N in test [2] turned out to be 2.
As for “Acinetobacter baumannii glutamyl-tRNA reductase (HemA), N-terminal His-tagged (enzyme)”, the stoichiometry N in test [3] is 4 and 2.

(Values after paper PMC6399207.)
